T1: canine CAPRIN-1, endogenous (canine tissue sections; serum of cancer-bearing dogs) (dog, UniProt A0A8I3S8S8 2-717)
T1 construct: Endogenous protein or fragment of it; also called antigen polypeptide contained in specimens (dog)
T1 sequence: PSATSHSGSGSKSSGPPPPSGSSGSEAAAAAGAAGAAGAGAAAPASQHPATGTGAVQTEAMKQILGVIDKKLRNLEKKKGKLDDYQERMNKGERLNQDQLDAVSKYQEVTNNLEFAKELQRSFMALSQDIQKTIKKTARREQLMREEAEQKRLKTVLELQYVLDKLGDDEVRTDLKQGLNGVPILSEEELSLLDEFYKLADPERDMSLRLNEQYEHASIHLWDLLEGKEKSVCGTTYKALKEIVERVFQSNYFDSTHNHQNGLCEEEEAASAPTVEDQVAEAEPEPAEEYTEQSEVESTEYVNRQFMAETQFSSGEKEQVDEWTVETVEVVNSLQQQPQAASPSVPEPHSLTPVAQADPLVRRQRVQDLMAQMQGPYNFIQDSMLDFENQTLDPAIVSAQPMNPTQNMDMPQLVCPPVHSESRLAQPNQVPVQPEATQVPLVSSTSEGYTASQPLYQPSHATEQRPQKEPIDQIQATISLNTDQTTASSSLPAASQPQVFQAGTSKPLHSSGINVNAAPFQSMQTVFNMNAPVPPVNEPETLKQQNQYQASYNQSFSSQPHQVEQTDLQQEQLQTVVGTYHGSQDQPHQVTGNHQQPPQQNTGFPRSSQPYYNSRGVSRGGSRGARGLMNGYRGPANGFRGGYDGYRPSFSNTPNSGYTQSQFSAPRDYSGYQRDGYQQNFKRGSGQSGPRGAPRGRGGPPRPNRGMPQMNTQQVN


Columns and labels:
[1] = target: feline CAPRIN-1, endogenous (serum of cancer-bearing cats) (cat); test: sandwich ELISA: polyclonal anti-SEQ ID NO: 43 immobilised, serum of cancer-bearing cats, monoclonal antibody 1 ug/ml as secondary antibody
[2] = target: T1, canine CAPRIN-1, endogenous (canine …); test: sandwich ELISA: polyclonal anti-SEQ ID NO: 43 immobilised, serum of cancer-bearing dogs, monoclonal antibody 1 ug/ml as secondary antibody
Source text: With the use of the polyclonal antibody against CAPRIN-1-derived peptide (SEQ ID NO: 43) obtained in Example 3 (1) and each monoclonal antibody against the CAPRIN-1 protein obtained in Example 3 (2) in combination, the antigen polypeptide itself contained in specimens (cancer-bearing living organism-derived serum) reacted positive upon cancer diagnosis using the polypeptide of CAPRIN-1 in Example 4 (1)-(3) was detected by Sandwich ELISA. The polyclonal antibody was used as a primary antibody and each monoclonal antibody was used as a secondary antibody. The serum protein level of the protein specifically reacting with each of the above antibodies was measured.
The primary antibody was immobilized by adding the polyclonal antibody diluted to a concentration of 5 μg/ml with phosphate buffered saline to 96-well immobilizer amino plates (Nunc) at 100 μl/well and then shaking the plates at room temperature for 2 hours. Blocking was performed by adding a 50 mM sodium bicarbonate buffer solution (pH 8.4) (hereinafter, blocking solution) containing 0.5% BSA (bovine serum albumin, Sigma Aldrich Japan) at 100 μl/well and then shaking at room temperature for 1 hour. Subsequently, a cancer-bearing living organism-derived serum diluted using the blocking solution was added at 100 μl/well and then the resultants were shaken at room temperature for 3 hours for reaction. The dilution rate at this time was adjusted with 10-fold (10-1000-fold) dilution series. After 3 instances of washing with phosphate buffered saline (hereinafter, PBS-T) containing 0.05% Tween20 (Wako Pure Chemical Industries, Ltd.), each monoclonal antibody as a secondary antibody diluted to a concentration of 1 μg/ml with the blocking solution was added at 100 μl/well and then the resultants were shaken at room temperature for 1 hour for reaction. After 3 instances of washing with PBS-T, an HRP-labeled anti-mouse IgG (H+L) antibody (Invitrogen Corporation) as a tertiary antibody diluted 5000-fold with the blocking solution was added at 100 μl per well and then left to stand at room temperature for 1 hour. […]

absorbance at 450 nm (polypeptide level) [1]	absorbance at 450 nm (polypeptide level) [2]	Binder
> 0.3	≥ 0.3	monoclonal antibody #2 (antibody, V domains shown, mouse hybridoma monoclonal antibody; also called anti-CAPRIN-1 monoclonal antibody #2) VH: EVQLHQFGAELVKPGASVKISCKASGYTFTDYNMDWVKQSHGKSLEWIGDINPNYDSTSYNQKFKGKATLTVDKSSSTAYMELRSLTSEDTAVYYCARSRSYDYEGFAYWGQGTLVTVSA VL: DIQLTQSPASLSASVGETVTITCRASGNIHNYLAWYQQKQGKSPQLLVYNAKTLADGVPSRFSGSGSGTQYSLKINSLQPEDFGSYYCQHFWSTLTFGGGTKLEIK
	≥ 0.3	monoclonal antibody #3 (antibody, V domains shown, mouse hybridoma monoclonal antibody; also called anti-CAPRIN-1 monoclonal antibody #3) VH: EVQLHQFGAELVKPGASVKISCKASGYTFTDYNMDWVKQSHGKSLEWIGDINPNYDSTSYNQKFKGKATLTVDKSSSTAYMELRSLTSEDTAVYYCARSRSYDYEGFAYWGQGTLVTVSA VL: SGDRVSLSCRASQSISNYLHWYQQKSHESPRLLIKYASQSISGIPSRFSGSGSGTDFTLSINSVETEDFGMYFCQQSNSWPYTFGAGTKLEIKQ
	≥ 0.3	monoclonal antibody #6 (antibody, V domains shown, mouse hybridoma monoclonal antibody; also called anti-CAPRIN-1 monoclonal antibody #6) VH: LQESGAELARPGASVKLSCKASGYTFTSYWMQWVKQRPGQGLEWIGAIYPGDGDTRYTQKFKGKATLTADKSSSTAYMQLSSLASEDSAVYYCARGEYGNYFAYWGQGTTVTVSS VL: TSDASLGERVTITCKASQDINSYLSWFQQKPGKSPKTLIYRANRLVDGVPSRFSGSGSGQDYSLTISSLEYEDMGIYYCLQYDEFPLTFGGGTKLEIKQ

From patent US20110136121A1 (TORAY INDUSTRIES, published 2011)
